Test results taken from publication PMC6564688 (Nature structural & molecular biology, 2019).

B1: zebrafish Otop1 (natural protein, UniProt Q7ZWK8 1-586, looked up)
chain: MVEHGGTDSMWLNKYNPAAASSASSSSSSDAENKLFSRLKVSLTKKYPQKNAELLSAQYGTNLLLLGVSVMLALAAQSGPVKEEHLLSFITVLMLVQLVWMLCYMIRRERERSPVPERDAHAGASWIRGGLTMLALLSLIMDAFRIGYFVGYHSCISAALGVYPIVHALHTISQVHFLWFHIKDVIKKYETFERFGVIHAVFTNLLLWCNGVMSETEHFMHNHRRRLIEMGYANLSTVDVQPHCNCTTSVCSMFSTSLYYLYPFNIEYHIFVSAMLFVMWKNIGRTLDRHSNRKRRSTGSTGLLLGPLGGLVALASSVSVLVVYLIHLEKTEEMHEAAVSMFYYYGVAMMACMCVGSGTGLLVYRMENRPMDTGSNPARTLDTELLLASSLGSWLMSWCSVVASVAEAGQKSPSFSWTSLTYSLLLVLEKCIQNLFIVESLYRRHSEEEEDAAAPQVFSVAVPPYDGILNHGYEAHDKHREAEPAAGSHALSRKQPDAPLPAGQRLDVTPGRKRQILKNICMFLFMCNISLWILPAFGCRPQYDNPLENETFGTSVWTTVLNVAIPLNLFYRMHSVASLFEVFRKV

What was measured:
[1] = biological target: chicken Otop3 (chicken); assay: cryo-EM structure
[2] = biological target: the molecule itself; assay: cryo-EM structure

Molecule | stoichiometry N [1] | stoichiometry N [2]
chicken Otop3 (natural protein) | 2 | 
B1 |  | 2
